Experimental findings from US20210236667A1 are described below.

In general, Kd refers to a measure of binding affinity in units of concentration. Lower therefore signals tighter binding.

Where two headings read alike, the source gives them in different places.

The target of assay [1] is Human epidermal growth factor receptor (EGFR) (human) (UniProt P00533). The assay can be described thus: flow cytometry on MDA-MB-468 cells. Background: Flow cytometry measures light scatter and fluorescence of single cells or particles in a stream.
Assay [2] has the same target. The assay can be described thus: flow cytometry saturation binding on MDA-MB-468 cells.
Assay [3] has the same target. The assay can be described thus: saturation radioligand binding assay on MDA-MB-468 cells.
Assay [4] has the same target. The assay can be described thus: immunoreactive fraction (Lindmo) assay on MDA-MB-468 cells.
Assay [5] shares this target. The assay can be described thus: flow cytometry on MDA-MB-468 cells. The source holds these as a separate data set.
The target is the same in assay [6]. The assay is described as follows: competitive radioligand binding on MDA-MB-468 cells pre-blocked with 100-fold excess of unlabeled 8709-scFv-Fc; ^225Ac-8709-scFv-Fc at 50 nM.

B1: 8709-scFv-Fc-PEG6-DM1 (scFv, part only; not given: scFv linker, hinge and Fc, V domains shown, not shown: another chain or arm of the molecule; a dimerising Fc or GST; small tags and cut ends)
VH: EVQLVESGGGLVQPGGSLRLSCAASGFNLYSSSMHWVRQAPGKGLEWVASIYPYSGYTYYADSVKGRFTISADTSKNTAYLQMNSLRAEDTAVYYCARYPFGVSAYYAMDYWGQGTLVTVSS
VL: DIQMTQSPSSLSASVGDRVTITCRASQSVSSAVAWYQQKPGKAPKLLIYSASSLYSGVPSRFSGSRSGTDFTLTISSLQPEDFATYYCQQSYWLITFGQGTKVEIK
modifications: PEG6-DM1 coupled via DM1-PEG6-NHS, drug to antibody ratio 3.5; attachment sites not stated.
The molecule B1 had a % binding in assay [1] greater than 90%. The Kd in assay [2] was 4.2 nM.

B2: ^225Ac-8709-scFv-Fc (scFv, part only; not given: scFv linker, hinge and Fc, V domains shown, not shown: another chain or arm of the molecule; a dimerising Fc or GST; small tags and cut ends)
VH: EVQLVESGGGLVQPGGSLRLSCAASGFNLYSSSMHWVRQAPGKGLEWVASIYPYSGYTYYADSVKGRFTISADTSKNTAYLQMNSLRAEDTAVYYCARYPFGVSAYYAMDYWGQGTLVTVSS
VL: DIQMTQSPSSLSASVGDRVTITCRASQSVSSAVAWYQQKPGKAPKLLIYSASSLYSGVPSRFSGSRSGTDFTLTISSLQPEDFATYYCQQSYWLITFGQGTKVEIK
modifications: Macropa chelator (coupled via macropa-NCS) carrying ^225Ac; attachment sites not stated.
In assay [3], B2 gave a Kd of 14.5 nM. Further, the immunoreactive fraction in assay [4] was found to be 0.86.

B3: Macropa-8709-scFv-Fc (scFv, part only; not given: scFv linker, hinge and Fc, V domains shown, not shown: another chain or arm of the molecule; a dimerising Fc or GST; small tags and cut ends)
VH: EVQLVESGGGLVQPGGSLRLSCAASGFNLYSSSMHWVRQAPGKGLEWVASIYPYSGYTYYADSVKGRFTISADTSKNTAYLQMNSLRAEDTAVYYCARYPFGVSAYYAMDYWGQGTLVTVSS
VL: DIQMTQSPSSLSASVGDRVTITCRASQSVSSAVAWYQQKPGKAPKLLIYSASSLYSGVPSRFSGSRSGTDFTLTISSLQPEDFATYYCQQSYWLITFGQGTKVEIK
modifications: Macropa chelator coupled via macropa-NCS, not radiolabeled; attachment sites not stated.
B3: the % binding in assay [1] was greater than 90%. Besides, in assay [5], the % binding is greater than 85%. In assay [2], the Kd was found to be 11.3 nM and the fold higher KD as compared to 8709-scFv-Fc came out at 10.4 fold.

B4: 8709-scFv-Fc (scFv, part only; not given: scFv linker, hinge and Fc, V domains shown, not shown: another chain or arm of the molecule; a dimerising Fc or GST; small tags and cut ends)
VH: EVQLVESGGGLVQPGGSLRLSCAASGFNLYSSSMHWVRQAPGKGLEWVASIYPYSGYTYYADSVKGRFTISADTSKNTAYLQMNSLRAEDTAVYYCARYPFGVSAYYAMDYWGQGTLVTVSS
VL: DIQMTQSPSSLSASVGDRVTITCRASQSVSSAVAWYQQKPGKAPKLLIYSASSLYSGVPSRFSGSRSGTDFTLTISSLQPEDFATYYCQQSYWLITFGQGTKVEIK
For the molecule B4, in assay [1], the % binding was greater than 90%. Also, the Kd in assay [2] stood at 1.1 nM. This molecule also registered a fold reduction in the binding of ^225Ac-8709-scFv-Fc to EGFR in assay [6] of 23.2 fold.
